B1: Speckle-type POZ protein (Homo sapiens), O43791 (parent)
chain: MSRVPSPPPPAEMSSGPVAESWCYTQIKVVKFSYMWTINNFSFCREEMGEVIKSSTFSSGANDKLKWCLRVNPKGLDEESKDYLSLYLLLVSCPKSEVRAKFKFSILNAKGEETKAMESQRAYRFVQGKDWGFKKFIRRDFLLDEANGLLPDDKLTLFCEVSVVQDSVNISGQNTMNMVKVPECRLADELGGLWENSRFTDCCLCVAGQEFQAHKAILAARSPVFSAMFEHEMEESKKNRVEINDVEPEVFKEMMCFIYTGKAPNLDKMADDLLAAADKYALERLKVMCEDALCSNLSVENAAEILILADLHSADQLKTQAVDFINYHASDVLETSGWKSMVVSHPHLVAEAYRSLASAQCPFLGPPRKRLKQS
partner: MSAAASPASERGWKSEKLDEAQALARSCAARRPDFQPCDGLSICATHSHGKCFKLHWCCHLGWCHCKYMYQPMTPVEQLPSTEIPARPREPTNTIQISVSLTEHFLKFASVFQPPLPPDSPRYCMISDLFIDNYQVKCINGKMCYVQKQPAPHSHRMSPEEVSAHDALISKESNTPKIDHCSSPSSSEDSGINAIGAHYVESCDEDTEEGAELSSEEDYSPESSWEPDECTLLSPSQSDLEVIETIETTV
B2: Speckle-type POZ protein (Homo sapiens), O43791 (parent)
chain: B1 chain
partner: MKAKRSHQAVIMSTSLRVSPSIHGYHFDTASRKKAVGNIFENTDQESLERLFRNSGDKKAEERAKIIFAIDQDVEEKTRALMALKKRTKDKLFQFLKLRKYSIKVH

One assay covers variants of B1. The conditions noted are these: with cc070_human C3orf70, A6NLC5.
For the variant MSRVPSPPPPAEMSSGPVAESWCYTQIKVVKFSYMWTINNFSFCREEMGEVIKSSTFSSGANDKLKWCLRVNPKGLDEESKDYLSLCLLLVSCPKSEVRAKFKFSILNAKGEETKAMESQRAYRFVQGKDWGFKKFIRRDFLLDEANGLLPDDKLTLFCEVSVVQDSVNISGQNTMNMVKVPECRLADELGGLWENSRFTDCCLCVAGQEFQAHKAILAARSPVFSAMFEHEMEESKKNRVEINDVEPEVFKEMMCFIYTGKAPNLDKMADDLLAAADKYALERLKVMCEDALCSNLSVENAAEILILADLHSADQLKTQAVDFINYHASDVLETSGWKSMVVSHPHLVAEAYRSLASAQCPFLGPPRKRLKQS [Y87C], the “effect of a mutation on the interaction” value is listed as “with no effect”.

A further assay covers variants of B1. The conditions noted are these: with cc070_human C3orf70, A6NLC5. The source holds these as a separate data set.
MSRVPSPPPPAEMSSGPVAESWCYTQIKVVKFSYMWTINNFSFCREEMGEVIKSSTFSSGANDKLKWCLRVNPKGLDEESKDYLSLYLLLVSCPKSEVRAKFKFSILNAKGEETKAMESQRAYRFVQGKDWGVKKFIRRDFLLDEANGLLPDDKLTLFCEVSVVQDSVNISGQNTMNMVKVPECRLADELGGLWENSRFTDCCLCVAGQEFQAHKAILAARSPVFSAMFEHEMEESKKNRVEINDVEPEVFKEMMCFIYTGKAPNLDKMADDLLAAADKYALERLKVMCEDALCSNLSVENAAEILILADLHSADQLKTQAVDFINYHASDVLETSGWKSMVVSHPHLVAEAYRSLASAQCPFLGPPRKRLKQS [F133V]: the “effect of a mutation on the interaction” value is reported as “with no effect”.

Variants of B1 are the subject of another assay. The conditions noted are these: with cc070_human C3orf70, A6NLC5. The source holds these as a separate data set.
As for MSRVPSPPPPAEMSSGPVAESWCYTQIKVVKFSYMWTINNFSFCREEMGEVIKSSTFSSGANDKLKWCLRVNPKGLDEESKDYLSLYLLLVSCPKSEVRAKFKFSILNAKGEETKAMESQRAYRFVQGKDWGLKKFIRRDFLLDEANGLLPDDKLTLFCEVSVVQDSVNISGQNTMNMVKVPECRLADELGGLWENSRFTDCCLCVAGQEFQAHKAILAARSPVFSAMFEHEMEESKKNRVEINDVEPEVFKEMMCFIYTGKAPNLDKMADDLLAAADKYALERLKVMCEDALCSNLSVENAAEILILADLHSADQLKTQAVDFINYHASDVLETSGWKSMVVSHPHLVAEAYRSLASAQCPFLGPPRKRLKQS [F133L], the “effect of a mutation on the interaction” value was “with no effect”.

The variants in another assay derive from B1. The conditions noted are these: with cc070_human C3orf70, A6NLC5. The source holds these as a separate data set.
With MSRVPSPPPPAEMSSGPVAESWCYTQIKVVKFSYMWTINNFSFCREEMGEVIKSSTFSSGANDKLKWCLRVNPKGLDEESKDYLSLYLLLVSCPKSEVRAKCKFSILNAKGEETKAMESQRAYRFVQGKDWGFKKFIRRDFLLDEANGLLPDDKLTLFCEVSVVQDSVNISGQNTMNMVKVPECRLADELGGLWENSRFTDCCLCVAGQEFQAHKAILAARSPVFSAMFEHEMEESKKNRVEINDVEPEVFKEMMCFIYTGKAPNLDKMADDLLAAADKYALERLKVMCEDALCSNLSVENAAEILILADLHSADQLKTQAVDFINYHASDVLETSGWKSMVVSHPHLVAEAYRSLASAQCPFLGPPRKRLKQS [F102C], the “effect of a mutation on the interaction” value is on record as “with no effect”.

In the next assay the parent is B2. The conditions noted are these: with tcim_human TCIM.
On to MSRVPSPPPPAEMSSGPVAESWCYTQIKVVKFSYMWTINNFSFCREEMGEVIKSSTFSSGANDKLKWCLRVNPKGLDEESKDYLSLYLLLVSCPKSEVRAKFKFSILNAKGEETKAMESQRAYRFVQGKDWGLKKFIRRDFLLDEANGLLPDDKLTLFCEVSVVQDSVNISGQNTMNMVKVPECRLADELGGLWENSRFTDCCLCVAGQEFQAHKAILAARSPVFSAMFEHEMEESKKNRVEINDVEPEVFKEMMCFIYTGKAPNLDKMADDLLAAADKYALERLKVMCEDALCSNLSVENAAEILILADLHSADQLKTQAVDFINYHASDVLETSGWKSMVVSHPHLVAEAYRSLASAQCPFLGPPRKRLKQS [F133L], for which the “effect of a mutation on the interaction” value is “with no effect”.

In a further assay the parent is B2. The conditions noted are these: with tcim_human TCIM. The source holds these as a separate data set.
As for MSRVPSPPPPAEMSSGPVAESWCYTQIKVVKFSYMWTINNFSFCREEMGEVIKSSTFSSGANDKLKWCLRVNPKGLDEESKDYLSLYLLLVSCPKSEVRAKFKFSILNAKGEETKAMESQRAYRFVQGKDWGVKKFIRRDFLLDEANGLLPDDKLTLFCEVSVVQDSVNISGQNTMNMVKVPECRLADELGGLWENSRFTDCCLCVAGQEFQAHKAILAARSPVFSAMFEHEMEESKKNRVEINDVEPEVFKEMMCFIYTGKAPNLDKMADDLLAAADKYALERLKVMCEDALCSNLSVENAAEILILADLHSADQLKTQAVDFINYHASDVLETSGWKSMVVSHPHLVAEAYRSLASAQCPFLGPPRKRLKQS [F133V], the “effect of a mutation on the interaction” value is recorded as “with no effect”.

In another assay the parent is B2. The conditions noted are these: with tcim_human TCIM. The source holds these as a separate data set.
On to MSRVPSPPPPAEMSSGPVAESWCYTQIKVVKFSYMWTINNFSFCREEMGEVIKSSTFSSGANDKLKWCLRVNPKGLDEESKDYLSLYLLLVSCPKSEVRAKCKFSILNAKGEETKAMESQRAYRFVQGKDWGFKKFIRRDFLLDEANGLLPDDKLTLFCEVSVVQDSVNISGQNTMNMVKVPECRLADELGGLWENSRFTDCCLCVAGQEFQAHKAILAARSPVFSAMFEHEMEESKKNRVEINDVEPEVFKEMMCFIYTGKAPNLDKMADDLLAAADKYALERLKVMCEDALCSNLSVENAAEILILADLHSADQLKTQAVDFINYHASDVLETSGWKSMVVSHPHLVAEAYRSLASAQCPFLGPPRKRLKQS [F102C], for which the “effect of a mutation on the interaction” value is listed as “with no effect”.

A further assay covers variants of B2. The conditions noted are these: with tcim_human TCIM. This is another data set of the same source.
For MSRVPSPPPPAEMSSGPVAESWCYTQIKVVKFSYMWTINNFSFCREEMGEVIKSSTFSSGANDKLKWCLRVNPKGLDEESKDYLSLCLLLVSCPKSEVRAKFKFSILNAKGEETKAMESQRAYRFVQGKDWGFKKFIRRDFLLDEANGLLPDDKLTLFCEVSVVQDSVNISGQNTMNMVKVPECRLADELGGLWENSRFTDCCLCVAGQEFQAHKAILAARSPVFSAMFEHEMEESKKNRVEINDVEPEVFKEMMCFIYTGKAPNLDKMADDLLAAADKYALERLKVMCEDALCSNLSVENAAEILILADLHSADQLKTQAVDFINYHASDVLETSGWKSMVVSHPHLVAEAYRSLASAQCPFLGPPRKRLKQS [Y87C], the “effect of a mutation on the interaction” value is “with no effect”.

For the origin of these results see IntAct's records for PubMed 35512704.
